Publication PMC11564096, “Structural and mechanistic insights into Streptococcus pneumoniae NADPH oxidase” (Nature Structural & Molecular Biology, 2024)

Substrate: NC(=O)C1=CN([C@@H]2O[C@H](COP(=O)(O)OP(=O)(O)OC[C@H]3O[C@@H](n4cnc5c(N)ncnc54)[C@H](O)[C@@H]3O)[C@@H](O)[C@H]2O)C=CC1
Test: purified protein
Assay type: biochemical, Streptococcus pneumoniae
Settings: 100 µM bovine cytochrome c, 0.1 µM SpNOX, 1 µM FAD, 50 mM Tris pH 7.0, 250 mM NaCl, room temperature, aerobic

B1: SpNOX (Streptococcus pneumoniae NOX) (Streptococcus pneumoniae R6) (protein)
chain: EFSMKSVKGLLFIIASFILTLLTWMNTSPQFMIPGLALTSLSLTFILATRLPLLESWFHSLEKVYTVHKFTAFLSIILLIFHNFSMGGLWGSRLAAQFGNLAIYIFASIILVAYLGKYIQYEAWRWIHRLVYLAYILGLFHIYMIMGNRLLTFNLLSFLVGSYALLGLLAGFYIIFLYQKISFPYLGKITHLKRLNHDTREIQIHLSRPFNYQSGQFAFLKIFQEGFESAPHPFSISGGHGQTLYFTVKTSGDHTKNIYDNLQAGSKVTLDRAYGHMIIEEGRENQVWIAGGIGITPFISYIREHPILDKQVHFYYSFRGDENAVYLDLLRNYAQKNPNFELHLIDSTKDGYLNFEQKEVPEHATVYMCGPISMMKALAKQIKKQNPKTELIYEGFKFK
notes: residues 2-400, N-terminal 6xHis-PreScission tag cleaved, E. coli C41(DE3), LMNG micelles, monomer, 46 kDa, two b-type hemes and FAD
With B1 as the protein, how does the Km read?
Its Km is 3.41 µM.

What about the kcat of the same protein?
Its kcat is 3.33 s⁻¹.
